Experimental data from US20080280834A1, “Compounds and methods for inhibiting apoptosis” (University of Pittsburgh of the Commonwealth System of …, priority 2005, published 2008).
Read-outs that look alike come from different tables or passages of the source. One block for each compound: values may come before it. Residues, ends and D or L forms follow the SMILES beside them. No end group written: not given here.

What was measured:
FasR = target: T1, FasR (Homo sapiens, UniProt P25445); experiment: ELISA binding of peptides to FasR (association constant); settings: for Ka(M − 1), Measured Association Constants (Ka) for YLGA and YLGX Substituted Peptides / Ka(M^−1), Measured Association Constants (Ka) for YLGA to XLGA Substituted Peptides / Ka(M^−1), Measured Association Constants (Ka) YLGA and YXGA Substituted Proteins / Ka(M^−1), Measured Association Constants (Ka) for YLGA and YLXA Substituted Peptides: ELISA; for Ka(M − 1), Measured Association Constants (Ka) for YLGA and YLGX Substituted Peptides / Ka(M^−1), Measured Association Constants (Ka) YLGA and YXGA Substituted Proteins / Ka(M^−1), Measured Association Constants (Ka) for YLGA and YLXA Substituted Peptides: 1 nM to 1 μM; for Ka(M − 1), Measured Association Constants (Ka) for YLGA and YLGX Substituted Peptides: fourth residue varied; for Ka (M^−1), Elongated Peptide Sequences: Table 7, peptides based on the α-Met sequence, Fas receptor; for Ka(M^−1), Measured Association Constants (Ka) for YLGA to XLGA Substituted Peptides: concentration range 1 nM to 1 μM, first residue varied; for Ka(M^−1), Measured Association Constants (Ka) YLGA and YXGA Substituted Proteins: second residue varied; for Ka(M^−1), Measured Association Constants (Ka) for YLGA and YLXA Substituted Peptides: third residue varied
T1 construct: Fc (IgG Fc fusion partner); purchased R&D Systems 326-FS-050
Excerpt: (§1) Cell Lines, Chemicals, Antibodies & Proteins. Recombinant Human Fas/TNFRSF6/Fc Chimera (cat no. 326-FS-050), Human Fas Ligand/TNFSF6 (cat. No. 126-FL), Anti-human Fas TNFRSF6 Polyclonal Antibody (cat. no. AF326) and Anti-6×Histidine Cross-Linking Ab (cat no. MAB050) were purchased from R&D Systems. Anti-human, IgM-HRP (cat. no. AP320P) was purchased from Chemicon International. Phosphate buffered saline (cat. no. P3563), sodium azide (cat. no. 71289) and 3,3′,5,5′-Tetramethylbenzidine (TMB) Liquid Substrate System for ELISA (cat. no. T0440) were purchased from Sigma-Aldrich. Cliniplate 96-well microplates w/enhanced binding (cat. no. 28298-604) were purchased from VWR. Costar, 96-well, cell culture assay plates (cat. no. 3632) were ordered from Corning Incorporated. Jurkat cells (ATCC no. CRL-1990) and L929 (ATCC no. CRL-2148) were purchased from ATCC and were propagated in RPMI 1640 medium with 2 mM L-glutamine, adjusted to contain 1.5 g/L sodium bicarbonate, 4.5 g/L glucose, 10 mM HEPES, and 1 mM sodium pyruvate, 90%; 10% fetal bovine serum. CellTiter Blue Cell Viability Assay (cat. no. TB317) was purchased from Promega.
ELISA. Peptides were dissolved in a coating buffer solution (0.05M Sodium Carbonate, 0.02% Sodium Azide, pH=9.6) at the appropriate concentrations to a final concentration of 10 μM. Dilutions were made accordingly to reach desired experimental concentrations. 100 μl aliquots of the peptide solution was added to each well and incubated for 2 hours. All incubations were carried out with shaking at T=37° C. Wells were washed by pipetting solution out of each well, adding 200 μL of washing solution (PBS-Tween; 0.5%), shaking for 15 minutes and emptying each well. Three wash cycles were carried out prior to addition of 200 μL of blocking solution (1% BSA in PBS buffer) to each well followed by incubation for 2 hours. Wells were then washed (as per above procedure) three times. Protein solutions of the appropriate concentrations (Vsolution 50 μL) were then added and incubated for 2 hours. After washing three times (as per above protocol) Fas specific antibody solution (˜1:20,000) was added to each well in 100 μL aliquots and incubated for 1 hour. After washing three times (as per above protocol) IgM-HRP solution (˜1:20,000) was added to each well in 100 μL aliquots and incubated (with shaking) for 1 hour at T=37° C. Wells were washed three times prior to the addition of ready-to-use TMD, followed by incubation for 30 minutes. 2M H2SO4 (3 drops) was added to stop colorimetric reaction and the absorption was taken at 450 nm on a Perkin-Elmer, Victor3 Model automated plate reader. Data was analyzed using standard regression fits in Excel.
Effect of Amino Acid Substitution on Binding Affinities. The binding affinity of each tetrapeptide was determined by standard ELISA with a concentration range of 1 nM to 1 μM. In the first series of peptides, alterations were made only to the tyrosine residue while retaining the final three amino acids homologous in the parent sequence (LGA).

TNFR1 = target: T2, TNFR1 (Mus musculus, UniProt P25118); experiment: Inhibition of the TNFR / TNFR1 pathway (EC50); assay type: cell-based; settings: Table 8
T2 sequence (P25118 30-454): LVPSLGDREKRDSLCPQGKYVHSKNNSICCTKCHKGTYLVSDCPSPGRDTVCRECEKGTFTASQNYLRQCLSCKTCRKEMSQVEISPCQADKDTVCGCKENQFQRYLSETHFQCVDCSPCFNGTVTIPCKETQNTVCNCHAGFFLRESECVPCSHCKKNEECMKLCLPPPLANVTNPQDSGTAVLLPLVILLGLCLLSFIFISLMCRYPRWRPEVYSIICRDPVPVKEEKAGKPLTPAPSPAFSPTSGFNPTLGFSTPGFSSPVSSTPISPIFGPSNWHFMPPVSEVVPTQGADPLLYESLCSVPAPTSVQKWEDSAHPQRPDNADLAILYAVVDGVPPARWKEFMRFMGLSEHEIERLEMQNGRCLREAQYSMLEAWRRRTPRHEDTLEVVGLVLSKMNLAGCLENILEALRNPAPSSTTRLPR
Excerpt: This correlation implies a peptide-protein interaction mechanism, wherein whereby tightly bound peptides are capable of blocking FasL association with the receptor and as such, inhibit FasL induced apoptosis.

Jurkat cells = assay type: cell-based, human; settings: for EC50 (nM): Table 5, Jurkat cells, peptide then recombinant FasL, cell viability
Excerpt: as §1
Apoptosis Assay. […] Control reactions were diluted with sterile PBS buffer to final volume of 200 μL per well. Peptide solutions (in PBS buffer, pH=7.3) were added in appropriate volumes to reach the desired concentrations in each well given a total volume of 200 μL per well. Apoptosis was induced by the addition of cross-linked human FasL at a concentration of 0.5 ng/ml. Plates were then incubated under sterile conditions, with shaking in a Kendro, model Hera Cell 150 incubator at T=37° C., % CO2=5 for 3 hours. A Cell Titer Blue Cell Viability Assay kit was used (as per accompanying protocol) to determine % apoptosis in cells. Fluorescence readings (560/590 nm) were taken after 4 hours under above cited incubation conditions on a Perkin-Elmer, Victor3 Model automated plate reader. Data was analyzed using standard regression fits in Excel.
Correlating the In-vitro Binding Assays with Cellular Activity. FasL activated apoptosis is known to occur by binding of the ligand to the receptor thereby initiating a series of signaling events leading to caspase production and subsequent cell death. If the YLGA (SEQ ID NO:1) motif isolated in both the α-Met and FasL proteins, is indeed the primary sequence responsible for binding to FasR then at a given concentration, peptides of sufficient Ka values should preferably bind to the receptor. This in turn would block the binding site from FasL and inhibiting cell death in the presence of both peptide and FasL. In order to examine this possibility, Jurkat cells (known to upregulate the Fas receptor) were treated with varying concentrations of peptide and then exposed to recombinant FasL.

T1 sequence (P25445 with tags, fused parts or gaps limits assumed): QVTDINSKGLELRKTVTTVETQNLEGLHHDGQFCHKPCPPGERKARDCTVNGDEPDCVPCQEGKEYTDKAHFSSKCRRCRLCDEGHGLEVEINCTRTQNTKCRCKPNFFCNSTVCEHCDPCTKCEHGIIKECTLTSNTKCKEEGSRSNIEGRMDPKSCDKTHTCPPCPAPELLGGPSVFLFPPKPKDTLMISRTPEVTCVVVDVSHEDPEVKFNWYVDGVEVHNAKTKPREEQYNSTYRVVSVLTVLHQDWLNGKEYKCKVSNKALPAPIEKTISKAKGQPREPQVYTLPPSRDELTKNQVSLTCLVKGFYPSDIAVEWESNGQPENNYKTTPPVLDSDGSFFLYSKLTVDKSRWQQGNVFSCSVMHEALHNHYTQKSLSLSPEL

- Ka(M − 1), Measured Association Constants (Ka) for YLGA and YLGX Substituted Peptides (FasR): no binding observed
Compound: YLGT [tetrapeptide]

- Ka (M^−1), Elongated Peptide Sequences (FasR): 3e+08 M⁻¹
Compound: HHIYLGAT [HHI YLG AT]

- Ka(M^−1), Measured Association Constants (Ka) for YLGA to XLGA Substituted Peptides (FasR): no binding
Compound: ALGA [tetrapeptide]

- Ka(M^−1), Measured Association Constants (Ka) YLGA and YXGA Substituted Proteins (FasR): no binding
Compound: YFGA [tetrapeptide]

- TNFR1 EC50 (TNFR1): no inhibition
Compound: RSSYLGAVF-NH2 [RSSYLGAVF]

- Ka(M^−1), Measured Association Constants (Ka) for YLGA to XLGA Substituted Peptides (FasR): no binding
Compound: GLGA [tetrapeptide]

- EC50 (Jurkat cells): 93 nM
Compound: CC(C)C[C@H](NC(=O)[C@@H](N)CC(C)C)C(=O)NCC(=O)N[C@@H](C)C(N)=O [LLGA] (H-LLGA-NH2)

- Ka (M^−1), Elongated Peptide Sequences (FasR): 3e+08 M⁻¹
Compound: HIYLGATNYIY [HI YLG ATN YIY]

- Ka(M^−1), Measured Association Constants (Ka) for YLGA to XLGA Substituted Peptides (FasR): 9e+06 M⁻¹
Compound: ILGA [tetrapeptide]

- Ka(M^−1), Measured Association Constants (Ka) for YLGA and YLXA Substituted Peptides (FasR): no binding observed
Compound: YldAA

- EC50 (nM) (Jurkat cells): no inhibition
Compound: LGA [LGA (trimer), Y-free trimer peptide]

- Ka(M − 1), Measured Association Constants (Ka) for YLGA and YLGX Substituted Peptides (FasR): 3 × 10^7 M − 1
Compound: YLGI [tetrapeptide]

- Ka(M^−1), Measured Association Constants (Ka) for YLGA to XLGA Substituted Peptides (FasR): 8e+06 M⁻¹
Compound: KLGA [tetrapeptide]

- Ka(M^−1), Measured Association Constants (Ka) YLGA and YXGA Substituted Proteins (FasR): 1e+07 M⁻¹
- decrease in measured Ka (FasR; relative to parent YLGA): 20 fold
Compound: YGGA [tetrapeptide]

Compound: C[C@H](NC(=O)CNC(=O)[C@H](C)NC(=O)[C@@H](N)Cc1ccc(O)cc1)C(N)=O [YAGA] (H-YAGA-NH2)
- EC50 (Jurkat cells): 6 nM

- Ka(M^−1), Measured Association Constants (Ka) YLGA and YXGA Substituted Proteins (FasR): no binding
Compound: YTGA [tetrapeptide]

- Ka(M^−1), Measured Association Constants (Ka) for YLGA to XLGA Substituted Peptides (FasR): 5e+07 M⁻¹
Compound: DLGA [tetrapeptide]

- Ka (M^−1), Elongated Peptide Sequences (FasR): 3e+08 M⁻¹
Compound: HHIYLGA [HHI YLG A]

- Ka(M − 1), Measured Association Constants (Ka) for YLGA and YLGX Substituted Peptides (FasR): 3 × 10^7 M − 1
Compound: YLGL [tetrapeptide]

- Ka(M^−1), Measured Association Constants (Ka) for YLGA to XLGA Substituted Peptides (FasR): 2e+08 M⁻¹
Compound: TLGA [tetrapeptide]

- Ka(M^−1), Measured Association Constants (Ka) for YLGA to XLGA Substituted Peptides (FasR): 5e+07 M⁻¹
Compound: ELGA [tetrapeptide]

- Ka (M^−1), Elongated Peptide Sequences (FasR): 3e+08 M⁻¹
Compound: HHIYLGATNYIY [HHI YLG ATN YIY]

- Ka(M^−1), Measured Association Constants (Ka) for YLGA and YLXA Substituted Peptides (FasR): 1e+06 M⁻¹
Compound: YLLA [tetrapeptide]

- Ka(M^−1), Measured Association Constants (Ka) YLGA and YXGA Substituted Proteins (FasR): 2e+08 M⁻¹
Compound: YVGA

- EC50 (Jurkat cells; Table 8, read-out: Fas EC50): 3.28 nM
- TNFR1 EC50 (TNFR1): no inhibition
Compound: RSSYLGA [RSSYLGA]

- Ka (M^−1), Elongated Peptide Sequences (FasR): 3e+08 M⁻¹
Compound: HHIYLGATNY [HHI YLG ATN Y]

- Ka (M^−1), Elongated Peptide Sequences (FasR): 3e+08 M⁻¹
Compound: HHIYLGATN [HHI YLG ATN]

- Ka(M^−1), Measured Association Constants (Ka) for YLGA and YLXA Substituted Peptides (FasR): 1e+06 M⁻¹
- EC50 (nM) (Jurkat cells): no inhibition
Compound: YLAA [tetrapeptide]

- Ka(M^−1), Measured Association Constants (Ka) for YLGA and YLXA Substituted Peptides (FasR): no binding observed
Compound: YLIA [tetrapeptide]

- Ka (M^−1), Elongated Peptide Sequences (FasR): 3e+08 M⁻¹
Compound: HHIYLGATNYI [HHI YLG ATN YI]

- Ka (M^−1), Elongated Peptide Sequences (FasR): 3e+08 M⁻¹
Compound: IYLGATNYIY [I YLG ATN YIY]

- Ka (M^−1), Elongated Peptide Sequences (FasR): 3e+08 M⁻¹
Compound: YLGATNYIY [YLG ATN YIY]

- EC50 (Jurkat cells): 6 nM
Compound: CC(C)C[C@H](NC(=O)[C@@H](N)CO)C(=O)NCC(=O)N[C@@H](C)C(N)=O [SLGA] (H-SLGA-NH2)

- Ka(M^−1), Measured Association Constants (Ka) YLGA and YXGA Substituted Proteins (FasR): 2e+08 M⁻¹
Compound: YIGA
